Experimental data from PMC12056068 (Nature Communications, 2025).

What was measured:
GST-SUVH3 = target: T1, GST-SUVH3 (Arabidopsis thaliana, UniProt Q9C5P4 1-669); assay: pull-down
T1 sequence (looked up): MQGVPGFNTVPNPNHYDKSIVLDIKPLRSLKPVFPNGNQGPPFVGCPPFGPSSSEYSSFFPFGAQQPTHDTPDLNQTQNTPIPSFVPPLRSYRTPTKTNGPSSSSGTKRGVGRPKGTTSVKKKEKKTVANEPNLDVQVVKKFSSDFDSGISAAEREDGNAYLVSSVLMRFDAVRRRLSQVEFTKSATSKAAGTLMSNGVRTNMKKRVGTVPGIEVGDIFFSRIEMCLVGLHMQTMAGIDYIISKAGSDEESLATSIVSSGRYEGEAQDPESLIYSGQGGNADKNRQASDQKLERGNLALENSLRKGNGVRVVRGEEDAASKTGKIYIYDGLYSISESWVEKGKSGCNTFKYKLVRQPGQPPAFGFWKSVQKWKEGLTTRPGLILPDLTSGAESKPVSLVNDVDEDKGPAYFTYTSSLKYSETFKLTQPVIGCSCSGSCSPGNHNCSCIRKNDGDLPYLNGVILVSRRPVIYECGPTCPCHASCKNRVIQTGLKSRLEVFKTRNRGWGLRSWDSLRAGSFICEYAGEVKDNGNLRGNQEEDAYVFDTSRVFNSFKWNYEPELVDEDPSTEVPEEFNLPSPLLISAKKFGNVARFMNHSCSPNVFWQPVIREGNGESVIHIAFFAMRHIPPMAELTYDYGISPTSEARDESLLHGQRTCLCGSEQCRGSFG

SUVH1 = target: T2, SUVH1 (Arabidopsis thaliana, UniProt Q9FF80 1-670); assay: pull-down
T2 sequence (looked up): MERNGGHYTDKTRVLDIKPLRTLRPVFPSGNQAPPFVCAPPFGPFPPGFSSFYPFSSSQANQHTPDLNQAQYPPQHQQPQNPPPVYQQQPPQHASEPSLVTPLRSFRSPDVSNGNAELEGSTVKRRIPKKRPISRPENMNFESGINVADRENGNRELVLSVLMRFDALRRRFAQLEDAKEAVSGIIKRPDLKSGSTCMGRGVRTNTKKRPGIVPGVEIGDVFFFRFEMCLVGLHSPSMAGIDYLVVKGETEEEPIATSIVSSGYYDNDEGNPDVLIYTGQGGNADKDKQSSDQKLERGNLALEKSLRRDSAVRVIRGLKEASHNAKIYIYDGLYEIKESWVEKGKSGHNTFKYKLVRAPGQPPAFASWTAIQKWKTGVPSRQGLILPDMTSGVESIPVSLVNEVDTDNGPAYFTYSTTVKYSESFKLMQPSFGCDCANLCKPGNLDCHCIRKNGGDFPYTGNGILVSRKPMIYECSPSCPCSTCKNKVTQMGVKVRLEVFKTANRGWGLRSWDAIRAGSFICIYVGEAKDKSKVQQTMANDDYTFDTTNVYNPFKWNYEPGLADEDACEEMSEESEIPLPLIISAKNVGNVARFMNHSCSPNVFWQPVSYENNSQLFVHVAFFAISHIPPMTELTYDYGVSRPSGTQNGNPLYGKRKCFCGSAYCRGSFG

B1: His-LEC2 (natural protein, Arabidopsis thaliana, UniProt Q1PFR7 1-363, looked up)
chain: MDNFLPFPSSNANSVQELSMDPNNNRSHFTTVPTYDHHQAQPHHFLPPFSYPVEQMAAVMNPQPVYLSECYPQIPVTQTGSEFGSLVGNPCLWQERGGFLDPRMTKMARINRKNAMMRSRNNSSPNSSPSELVDSKRQLMMLNLKNNVQISDKKDSYQQSTFDNKKLRVLCEKELKNSDVGSLGRIVLPKRDAEANLPKLSDKEGIVVQMRDVFSMQSWSFKYKFWSNNKSRMYVLENTGEFVKQNGAEIGDFLTIYEDESKNLYFAMNGNSGKQNEGRENESRERNHYEEAMLDYIPRDEEEASIAMLIGNLNDHYPIPNDLMDLTTDLQHHQATSSSMPPEDHAYVGSSDDQVSFNDFEWW
- binding result (GST-SUVH3): binds
- binding result (SUVH1): binds
